From patent US20140322196A1 (priority 2011, published 2014) come the findings set out here.

Where two headings read alike, the source gives them in different places.

Data set [1] concerns A/Solomon (3/06) inactivated subunits, vaccine H1N1. In kind it is cell-based, Influenza A virus.
In data set [2] the test system is A/Turkey/Italy/2676/99 H7N1. The format is cell-based, Influenza A virus.
Data set [3] concerns Avian 29/05/06 inactivated vaccine H5N1. In kind it is cell-based, Influenza A virus. The note with it: Avian 29/05/06 H5N1 inactivated vaccine.
The subject of data set [4] is HA and NA surface antigens of Solomon (H1N1) and Wisconsin (H3N2) subunit vaccines. In kind it is binding, Influenza A virus.
Data set [5] relates to all tested virus strains (Influenza A H1N1, H3N2, H5N1, H7N1).
Data set [6] has as its system A/Wisconsin (67/05) inactivated subunits, vaccine H3N2. The format is cell-based, Influenza A virus.
The test system of data set [7] is Influenza virus A/RomaISS/2/08. In kind it is binding.
For data set [8], the system named is A/Parma/5/06 (Wisconsin-like) H3N2. In kind it is cell-based, Influenza A virus.
In data set [9] the test system is Influenza A/H1N1 (A/Roma-ISS/2/08 and A/Parma/24/09) and A/H3N2 (A/Parma/05/06). The format is cell-based, Influenza A virus.
Data set [10] concerns A/Roma-ISS/2/08 (Brisbane-like) (oseltamivir-sensitive) H1N1. The format is cell-based, Influenza A virus.
For another data set, the system named is A/PR/8/34 H1N1. In kind it is cell-based, Influenza A virus.
Data set [11] concerns SW X-179A 1089/09 inactivated subunits, vaccine H1N1. In kind it is cell-based, Influenza A virus.

B1: bLf: Lactoferrin from bovine milk, purchased from Morinaga Milk Industries, deprived of endotoxin (protein, UniProt P24627 20-708, looked up)
Lactotransferrin: APRKNVRWCTISQPEWFKCRRWQWRMKKLGAPSITCVRRAFALECIRAIAEKKADAVTLDGGMVFEAGRDPYKLRPVAAEIYGTKESPQTHYYAVAVVKKGSNFQLDQLQGRKSCHTGLGRSAGWIIPMGILRPYLSWTESLEPLQGAVAKFFSASCVPCIDRQAYPNLCQLCKGEGENQCACSSREPYFGYSGAFKCLQDGAGDVAFVKETTVFENLPEKADRDQYELLCLNNSRAPVDAFKECHLAQVPSHAVVARSVDGKEDLIWKLLSKAQEKFGKNKSRSFQLFGSPPGQRDLLFKDSALGFLRIPSKVDSALYLGSRYLTTLKNLRETAEEVKARYTRVVWCAVGPEEQKKCQQWSQQSGQNVTCATASTTDDCIVLVLKGEADALNLDGGYIYTAGKCGLVPVLAENRKSSKHSSLDCVLRPTEGYLAVAVVKKANEGLTWNSLKDKKSCHTAVDRTAGWNIPMGLIVNQTGSCAFDEFFSQSCAPGADPKSRLCALCAGDDQGLDKCVPNSKEKYYGYTGAFRCLAEDVGDVAFVKNDTVWENTNGESTADWAKNLNREDFRLLCLDGTRKPVTEAQSCHLAVAPNHAVVSRSDRAAHVKQVLLHQQALFGKNGKNCPDKFCLFKSETKNLLFNDNTECLAKLGGRPTYEEYLGTEYVTAIANLKKCSTSPLLEACAFLTR
Consider B1, for which the HI titre is 5 pM in data set [1]; 93.1 fM in data set [2]; 2.9 pM in data set [3]; 0.3 pM in [6]; 3 nM in [8]; 6 nM in [10]. For the same molecule, the HI titre is given as 3 nM with A/PR/8/34 H1N1 and 46.5 fM in data set [11]. Also, the “bLf binding to viral envelope proteins (in words)” value in data set [4] is “binds to a viral protein of apparent molecular mass of 28 kDa”. Moreover, in [5] (turkey red blood cells, in the hemagglutination assays), the “substance-induced agglutination or erythrocyte lysis” value is “Neither bLf-induced agglutination nor visual evidence of erythrocyte lysis was observed”. Also, the “virus binding to bLf” value in [7] (pH 4) is reported as 47.2+/−1.4%; in data set [7] (pH 5), 52.9+/−9.7%; in [7] (pH 6), 34.1+/−4.1%. Moreover, the “effect on virus replication / infection (in words)” value in data set [9] is “markedly inhibited”.

B2: C-lobe: bovine lactoferrin C-lobe as named in the text, without saying which of the two fragments of Table 2 (protein)
chain: YTRVVWCAVGPEEQKKCQQWSQQSGQNVTCATASTTDDCIVLVLKGEADALNLDGGYIYTAGKCGLVPVLAENRKSSKHSSLDCVLRPTEGYLAVAVVKKANEGLTWNSLKDKKSCHTAVDRTAGWNIPMGLIVNQTGSCAFDEFFSQSCAPGADPKSRLCALCAGDDQGLDKCVPNSKEKYYGYTGAFRCLAEDVGDVAFVKNDTVWENTNGESTADWAKNLNREDFRLLCLDGTRKPVTEAQSCHLAVAPNHAVVSRSDRAAHVKQVLLHQQALFGKNGKNCPDKFCLFKSETKNLLFNDNTECLAKLGGRPTYEEYLGTEYVTAIANLKKCSTSPLLEACAFLTR
modifications: bovine lactoferrin C-lobe peptide
On to B2, for which the “inhibition of viral hemagglutination (in words)” value in data set [5] is recorded as “marked inhibition of viral hemagglutination”. Further, in data set [9], the “effect on virus replication / infection (in words)” value is “highly inhibited”.
